According to the DeepSol protein solubility set:

Assay: soluble on expression in E. coli; label from the status in PepcDB or PDB records

Row | Sequence | soluble on expression in E. coli
1 | MDTVVMSWWDFGHLFAVAADRPVTFDGGSQNTPRAYWIGKALTTSNETLSRGILTMLSTSGDLAYETLDNYTDDSGKTAEILTATLGLPREEARAVMTGRYGLSDKEADSVLRYSHPAKPKPFVLVLSSDMLGKAPWWTYFGTWDFKKKTGSRLEHHHHHH | not soluble
2 | MDVAGEKQQRKGEAIARIEAEKNAYTVAQLADEYFERMIAGRWKHPNIVRSRIEKDIKPAIGSLKVEDVKPRHIDDVLKAVMKRGAPSIANDTLRWLKRMFNYAIKRHIIEYNPAAAFLEHHHHHH | not soluble
3 | MDVASALEGNWEFRVDHKNIKIFSSKIRGSQVLGFKGEAVFEASLRKLISLFHDFGNYGKWVHQLSEMEVLHKSDELDYVVRQVLNTPWPIPKREMIVRTALHASEEGALALTMTGIPDYVPLKPDFHRVREARGGWILMPVDGGKVHVTFVMHLDPGSDIPPALSNAALFEVPFYSLLKMRDLAQNPSYKPAWPSVVDNHVTIIEDVPDKHLEHHHHHH | soluble
4 | MDVVFPKMPHHQTVTNVRVPSSRGSAISRAHSEHRRSIDRSEPRHHHRHHVHSETPELPYTRGISKTPSVREYNVKREGQRSPSRSHRSERSPSEVRIPVTTTHTRPIAKRQSPEELDYGRFADKSQQNRFPGDHQAREEDLPYTRGISKTPSNQDSRSERTPCSDIHIPYNNPEKERAYQQSERSSYRSHKSVTPSEKSLPRNSETPELHYTRGISKTPSDRVEKSRYLSRGVSTPHTPSEVHIPYNNPEKERAYQQSHRPSSPKRRPSGRTNSPNKSSSSSKARPSAAPLEEIVHIKERYERDETIRRFFPTTTAV | not soluble
5 | MDYQQLANQIKQWAIELGFEKVGICDVDLSEHEPALQAWLDAGYHGEMDWMARHGMMRARPAELLPGTLRVISARINYLPPQAQFASNLSDPNQAYISRYALGRDYHKLVRNQLKKLGEKIEQEVGKLGYRPFVDSAPILERPLAQKAGLGWTGKHSLILDKENGSWFFLGELLVDIPLPVDEPSENQCGKCTACITSCPTNAIVAEGVVDARRCVSYLTIEYSGVIPLEFRRAMGNRIYGCDDCQLVCPWNRFAPLTQQSDFHRRQSLNNADLVVLFEWDEATFLKNMEGSAIRRIGHQQWRRNLIIAMGNAPYSPRIIDTLQRHLGQSELLDEHIHWALEEQTQKTATPRQHARLIRIIEKGLPRDA | not soluble
6 | MEAGFVSIGDVTFRDLEDEAIVELVRKGNTDALEYLIHKYKNFVRAKSRSYFLVGADREDIVQEGMIGLFKAIRDYKEDKLSSFKAFAELCITRQIITAIKTATRQKHIPLNSYVSLDKPIYDEESDRTLLDVISEAKVTDPEEMIISQEEYTDIESKISELLSDLERKVLSLYLDGRSYQEISEQLNRHVKSIDNALQRVKRKLERYMEMRESTTLNS | not soluble
7 | MEAKTMKDMQKEVDAYIGQFKEGYFSPLAMMARLTEEMGELAREVNHYYGEKPKKTTEKERSIEEELGDVLFVMICMANSLNIDLETAHNIVMNKFNTRDKDRWTRIDEGEKE | not soluble
8 | MEARAIVIIPDTLKVGFIIGGRRGQGLMSIKTPQNTWSQPVFVKLTGGSIGLQAGVQSSDVVLVFRNDRNLDNIVNGKFTLGADASVAAGPVGRNALAATDSELKAEIYSWSTARGLFAGIALDGAALQIDDSANLDVYGKGTTPRMIFEGRTAEPPSSDVIAFRDRLEEVTYTARNNLEHHHHHH | not soluble
9 | MEATLPVLDAKTAALKRRSIRRYRKDPVPEGLLREILEAALRAPSAWNLQPWRIVVVRDPATKRALREAAFGQAHVEEAPVVLVLYADLEDALAHLDEVIHPGVQGERREAQKQAIQRAFAAMGQEARKAWASGQSYILLGYLLLLLEAYGLGSVPMLGFDPERVRAILGLPSRAAIPALVALGYPAEEGYPSHRLPLERVVLWR | soluble
10 | MECAEKVEAEIPGQAGRRAGKPSRTYYLEVYGCSLSEFDALIMASRLEEAGYRRVARPEDADVILVNTCAVRLDTEQRIAERLEKLRLQLPDRKYVVAGCLVKARPGLVARLVPEASLLAPQAVERVLDAVDALESGRRLVVLDGRRDTRSMPQLPITDAVVTVMIQEGCLGDCSFCITKVARRQVRSYSPRVIVERVREAVEKGAREIRLTGTDVAVYGVDLPGKPNLADLVAAILEKVEGDYRIRVGMMTPDQVEPYLDSLLDVYRDERVYKYFHLPVQSGDDEVLKIMKRNYTVSEYKAIHRRIKSRFPDAMIATDIIVGHPGETWEAFWNTVRLVEELRFEKVHLAQYSLRPHTEAASMEQVPDSVKKERSRILGKIVAEIGLEINGSYVGRRVRALVTERSWREGSMTGRLDNYTPIILPYEERAMGRWVYAEVEEATFFDLRSSKFEPAP | soluble
11 | MEDVNDLYTMALGEFYAPAPSTSSIKKPAKVPEDQPSTSSAPPTTALFRQLLIGSRSQIERLKKENEELKTKLKHATSSGGVVICPNCTHHFKDRQCPMRPRAMKKMRARNCVELEFGNLEDLEMWLYLNQLETNNDGMPTVMNVKKATNCPEKSLKESGSLLPELVEKKREEKRQQEDQKAVVLEKRKPVTQKVQDHLKRRSKSPIGRGKDQSDKDIISNKKRKLNRQSKEEIDERSKIAKKAPISQRVQFPRMPAPQAPDAVASKVREQKPVDITPHPRPSASRNSESQKPVASKIQEKKTEVRTKSSPTNPIVNSKQPSQKKPADLTPHPKRPPITPETLPSRNSEIQKPAASKIQEKKTEVIARSQKSEASTKIAQKPSPTNPTVNFKQPSQKPADLTPKPITLASKSPITRSSEVSTEPSTKPKRAPIVWDDKPKDSTAKELPKELPKAKSHFEFKVKPIEKKDASPPKTTSTSSASPPNPDPAMKQKYKFVPTSKKQKLTETKNKDQKSTINESPVECQNSGQNEASNPTKLKDQELNKHVVPKNPEAIETPDERQESVQKSNEASATSSTKPSDPVETPSDEVDPQETQWKVYSVKQSRPVLDHIYKFALARQSLKRHWNDKMIVLNGDVPQEKVEESKPLSIAESLKRIGVSVEGIAVLQKQLKASAPEPPVLSTTVDDEDALGEFFPDLAKRKTSEIRPVSAESLWSVTDREEEELKILVREDSVVPPSGDCLMDVEAYEITEDLESQTYEASQSDWKEFCLEDVDDDVDETLRERKLSEMEKSAENLDENMDWIENLEELGNDDEQEEEEEEDQEQEQEQVAPSRSISVPLEMKNDFVLSDEDDPVSPVTSTPRKEDFNDDLSGCLEEDEEDTENLLPQAKDDSFIDELDWNYGTDYEEEEVEEAEVVVEEKDNSGSDHDATLEDGEISENDDGEDEKKEEEPKKPIRERTKFMITEDQLGPKTDEEEDEPPEIHRAPPRKRKINYNRQKGSEDNRHRNYRKRDTRPATYLSLLKRRNS | not soluble
12 | MEDYANISKGKEKFFPHCFYGRCCARRMLCDANVFPYALPVEANSLKEQAPCLKDEECDLFPDFLGTCVHHQNVTNILENRRFKYFPTNNNVKPKGYGMCCYSKKSSICSTGGTPFEVELSDGPCSNHIDCNPDELPFKWNAYCSQNAKSNMCCRDTLVDSLCPDGFTPYRTQQKCEGYHPLSKSSGKCPKSNGMCHRGHCCPRLTIDEARKATPYHLNYVTDTQCDPTEPLDFVYRWAFCDEIEEKIVVMGDRNADGTELNWQQSRCTINR | not soluble
13 | MEEGYRLKFIFIGNQNNNIKNKNFSNPHNILFDSKKDIILTQDLCEEFLNLNINKQDHAIELLKKELSPLLFEDSLSYLKEEFINEKLEFNISNLASRYTANNDVDTINNKIIEGISITNNFKYTNISYLKELKGYIENDILDKMKSKYAKNIYLNFKKIFSNLEQSVNNYLELEEEFEEKKKYLSEIYELIDEINIDPYIFLTEHNECNIYKISENEKLELQTYMSKIEKVLLKYQTYLKETCKECLFYPYLLVQGEAGIGKSHLLAHLSKKLRDENHIIYLFLGQFFTKNEDPWHQILNDLEVTNSVDNFLRSISNKAKETKKRAFIIIDALNEGEGKRLWGNYFQSFINHIKKYSNIALIFSIRTPFEDVILPKNAIQDNNIVVFQHEGFSKEENYNPIVSFCDFYGLELPKLPILNPEFNNPLFLKLMCEYCVNKFKEFDQTISVAELFTNVLKTVNINLSKEDKFDFDKNINVVQKVIKGLVELMNDSEFNQLNYEESYTVVNNIAKEYVQKSNRFLEALIDENILIKNTGYKGEMIIYFSYERMGDYFLSEYLLEKYRNVDKRDLVTKLQSDEKVTRYFQKEDDLSYNRGLINELFIKLANEFNIELFEVFPQFKNNYNMIYSFINSLVWRKDGSISKHTKCYISDNVIPYDAFRNNFLDVLLIKMPQKNHPLNIWALHKLLKQCNLGKRDFLWTQYISINNEKVFEIINWLFSNYKKLDEETAEKYMIFLTWIFSATNNKLRDLGTKSLVKLFKTFPTKIIGLLKLFENNNDPYIVERLYASVLGATLRIDICEIHIEIANYIYEEIFDKEMVYPHILMRDYARQTIEYISLSKDISNINLEKIRPPYKSNWYKKEYSNLNIDDYIKSLKNKLDSHLHFSIDKIKNSMTTEYGRGTGAYGDFGRYVFGYAVRNWVKGFKSDQDLSNIALMRIFEMGYDAKLHGEFDMWVNRYDNFNNSIERISKKYQWIAYYEILAKLVDKFPDVQYSGLWDDYIRDIDPTLLLLEIDK | not soluble
14 | MEEMLREIERILEWPRMLKATVISKGFSFDEKYKIELESGASYFIKVCDSSYFERKQEEYEYMQQLDSLHIPMPKLIHFISLTKFNKCVQVFEWIDGLDGEDNLRTLSTQTQYRAGKKAGEVIKKIHLVEKEDKSNSWEMSIWSKYERYLEALKEYEVDFFRLNTVIDFVGNHKDLLKNRPIVFLHDDFHPANIMIDQNEFRAVIDFARFDIGDPIHDFYKVALFTTNISKPFAVGQVHGYCGGEPDLHFWKLYSLYAAMIFPADIVWTNRSTPYLLDDMKERLNGILEDHNDFSSYIPKWYQSSEFNK | not soluble
15 | MEETSMGKLSICRQNVPMKSMPSRLPKIDQAGVARRLEALRDALGLDKGEFAQSFGLDPSSYSKVLQGKKPLKSEYGHAIAEGWGVSMDFIYRGDMSRIDETLRTKVMQNLTAPMR | not soluble
16 | MEEVSSEMEVEVQNRQLSDSSPAQNVKKFGLKNSIQTNFGSDYVFQIVPKIDWTAIAVSLSTNTVKLYSPVTGQYYGECKGHSDTVNQIAFSSDSAASPHVLHSCSSDGTIRSWDTRSFQQVSRIDTGNDQEIFSFSYGGAADNLLAGGCKEQVLLWDWRNSKQVACLEESHMDDVTQVHFVPNKPNKLLSASVDGLICLFNTEGDINDDDHLESVINVGTSIGKIGFLGDGYKKLWCLTHIETLSIWNWEDGSCEVNLEKARELASDSWTQDNVDYFVDCHCPGGEDLWVIGGTCAGTVGYFPVNYKQPGSIGTAEAILGGGHIDVVRSVLQMPGEYGGAAGLFGWTGGEDGRLCCWKSDEDATEINRSWTSSELVVKPPRNRKKNRHSPY | not soluble
17 | MEFEGCSGFRQRLVLSTLSGKPVKIRNIRSKDDNPGLRDFEASFIRMLDKLTNGTRIEINQTGTVLFYQPGLLYGGSVEHECNVQRSVGYYLEALLMLVPFMKTPIKAVLKGITNHPTDPSVDLLKVTAVPLMKRFGINGDGLEIKVVKRGMAPGGGGEVHFSCPVSRSMKPVQLTEAGKIKRIRGTAFSVRVSPQMANRIVDSARSILNKFIPDIYIYTDHMKGPNSGKSPGFGLGLVAETLNGVFLGAEVVSTPQGQGEMQLPEDLGRNCAKLLLEEIYRGGCVDSTNQSLALLYMTLGQQDVSKTLLGPLSPYTMDFLRHIRDFFQIMFKIETQKPSEDECKGGEKVLMTCVGAGYNNISKSIK | not soluble
